From patent US20240141028A1 (RHODE ISLAND HOSPITAL, published 2024)

Target: T1, PfGARP aa 443-459 (…) (Plasmodium falciparum)
T1 construct: Stood on the microarray as overlapping 15-mer peptides, not as one 17-mer
Test: microarray of overlapping 15-mer peptides
Description: The peptides overlapped by a single amino acid and were printed in duplicate, framed by HA control peptides.
For epitope mapping, a custom 15-mer peptide microarray was designed and printed. […] The peptides overlapped by a single amino acid and were printed in duplicate, framed by HA control peptides. […] A duplicate array was probed with polyclonal, monospecific anti-PfGARP-A mouse antibodies (red).

B1: recombinant monoclonal anti-PfGARP (rec mAb7899) (antibody, V domains shown)
VH: EAQLQQSGTELVKPGASVKLSCTASGFYIKDTYIHWVRQRPVQGLEWIGRIDPANYDTKYDPKFQGKATITADTSSNTAYLQLINLTPEDTVVYYCTSFGGTKLRFAYWGQGTLVTVSA
VL: NIMMTQSPSSLAVSAGEEVTMSCKSSQSVLYSSNQRNYLAWFQQKSGQSPKLLIYWASTRESGVPDRFTGSGSGTDFTLTISNLQVEDLAVYYCLQHFSSWTFGGGTKLEIK
notes: also called recombinant mAb7899; recombinant mAb
Does B1 bind?
Result: binds
